Here are results for one molecule from PMC3314968, “The UBAP1 Subunit of ESCRT-I Interacts with Ubiquitin via a SOUBA Domain” (Structure(London, England:1993), 2012).

For the test, the target named is T1, monoubiquitin (SIGMA U6253) (UniProt P0CG48 1-76).
T1 construct: ubiquitin, the 76-residue cut product of a ubiquitin precursor; source: bought: SIGMA U6253
Put plainly: ITC; Microcal ITC200; 20 mM Tris-HCl (pH 7.5), 100 mM NaCl, 1 mM TCEP; SOUBA domain at 150 μM in the cell, 38 injections of monoubiquitin at 3 mM; single set of independent sites. The following applies: both partners purified.

B1: human UBAP1 SOUBA domain (389-502), wild-type (domain or fragment, UniProt Q9NZ09 389-502, looked up)
chain: SPSERQCVETVVNMGYSYECVLRAMKKKGENIEQILDYLFAHGQLCEKGFDPLLVEEALEMHQCSEEKMMEFLQLMSKFKEMGFELKDIKEVLLLHNNDQDNALEDLMARAGAS
notes: UBAP1, human, residues 389-502 (SOUBA domain); The His6 tag is followed by a TEV protease cleavage site; whether it was cut is told in the Supplemental Experimental Procedures; Used unlabeled or 15N- (13C/15N-) labeled in NMR; also called UBAP1(389-502); UBAP1_389-502; source: recombinant, from the pOPTH(tev) expression vector, purified (details in Supplemental Experimental Procedures)
Broadly, the Kd is the constant that tells how readily two partners part at equilibrium. A high value points to weaker binding. Molecule B1 showed a Kd of approximately 70 µM.
